From the RNAGym collection of RNA variant scans (doi:10.7554/elife.90254)

B1: LINE1-mini (parent)
chain: GGCAGAGCUCAACACAGCGUGGCAAAGUGGCUGUGGCUAGACUGCC

Variants of: B1
Test: self-cleavage, relative activity (ratio to wild type); higher = more cleavage; in vitro, sequencing; the parent is a self-cleaving ribozyme
For GGCAGAGCUCAACACAGCGUGGCAAAGUGGCUGUGGCUAUAUUGCC [G40U C42U], the self-cleavage was 0.07.
GGCAGAGCUCAACACAGCGUGGCAAAGUGGCUGUGGCUAUAGUGCC [G40U C42G] gave a self-cleavage of 0.08.
For GGCAGAGCUCAACACAGCGUGGCAAAGUGGCUGUGGCUAUAAUGCC [G40U C42A], the self-cleavage was 0.09.
Variant GGCAGAGCUCAACACAGCGUGGCAAAGUGGCUGUGGCUCGCCUGCC [A39C A41C] has a self-cleavage of 0.62.
Variant GGCAGAGCUCAACACAGCGUGGCAAAGUGGCUGUGGCUCGUCUGCC [A39C A41U] has a self-cleavage of 0.4.
Work on GGCAGAGCUCAACACAGCGUGGCAAAGUGGCUGUGGCUCGGCUGCC [A39C A41G] yielded a self-cleavage of 0.1.
Variant GGCAGAGCUCAACACAGCGUGGCAAAGUGGCUGUGGCUGGACUACC [A39G G44A] has a self-cleavage of 0.16.
With GGCAGAGCUCAACACAGCGUGGCAAAGUGGCUGUGGCUGGACUUCC [A39G G44U] the self-cleavage was 0.22.
GGCAGAGCUCAACACAGCGUGGCAAAGUGGCUGUGGCUGGACUCCC [A39G G44C] showed a self-cleavage of 0.09.
With GGCAGAGCUCAACACAGCGUGGCAAAGUGGCUGUGGCUGGCCUGCC [A39G A41C] the self-cleavage was 0.03.
GGCAGAGCUCAACACAGCGUGGCAAAGUGGCUGUGGCUGGUCUGCC [A39G A41U] gave a self-cleavage of 0.07.
For GGCAGAGCUCAACACAGCGUGGCAAAGUGGCUGUGGCUGGGCUGCC [A39G A41G], the self-cleavage was 0.01.
GGCAGAGCUCAACACAGCGUGGCAAAGUGGCUGUGGCUCGACUGUC [A39C C45U] showed a self-cleavage of 0.24.
GGCAGAGCUCAACACAGCGUGGCAAAGUGGCUGUGGCUCGACUGAC [A39C C45A] gave a self-cleavage of 0.14.
With GGCAGAGCUCAACACAGCGUGGCAAAGUGGCUGUGGCUCGACUGGC [A39C C45G] the self-cleavage was 0.12.
GGCAGAGCUCAACACAGCGUGGCAAAGUGGCUGUGGCUCCACUGCC [A39C G40C] gave a self-cleavage of 0.07.
In the case of GGCAGAGCUCAACACAGCGUGGCAAAGUGGCUGUGGCUCUACUGCC [A39C G40U], the self-cleavage is reported as 0.11.
For GGCAGAGCUCAACACAGCGUGGCAAAGUGGCUGUGGCUCAACUGCC [A39C G40A], the self-cleavage was 0.08.
Work on GGCAGAGCUCAACACAGCGUGGCAAAGUGGCUGUGGCUGGAAUGCC [A39G C42A] yielded a self-cleavage of 0.09.
GGCAGAGCUCAACACAGCGUGGCAAAGUGGCUGUGGCUGGAGUGCC [A39G C42G] showed a self-cleavage of 0.03.
For GGCAGAGCUCAACACAGCGUGGCAAAGUGGCUGUGGCUGGAUUGCC [A39G C42U], the self-cleavage was 0.12.
For GGCAGAGCUCAACACAGCGUGGCAAAGUGGCUGUGGCUACACAGCC [G40C U43A], the self-cleavage was 0.06.
GGCAGAGCUCAACACAGCGUGGCAAAGUGGCUGUGGCUACACCGCC [G40C U43C] gave a self-cleavage of 0.07.
GGCAGAGCUCAACACAGCGUGGCAAAGUGGCUGUGGCUACACGGCC [G40C U43G] gave a self-cleavage of 0.41.
For GGCAGAGCUCAACACAGCGUGGCAAAGUGGCUGUGGCUAAACUGCG [G40A C46G], the self-cleavage was 0.11.
In the case of GGCAGAGCUCAACACAGCGUGGCAAAGUGGCUGUGGCUAAACUGCA [G40A C46A], the self-cleavage is reported as 0.14.
For GGCAGAGCUCAACACAGCGUGGCAAAGUGGCUGUGGCUAAACUGCU [G40A C46U], the self-cleavage was 0.14.
In the case of GGCAGAGCUCAACACAGCGUGGCAAAGUGGCUGUGGCUUGACCGCC [A39U U43C], the self-cleavage is reported as 0.06.
For GGCAGAGCUCAACACAGCGUGGCAAAGUGGCUGUGGCUUGACAGCC [A39U U43A], the self-cleavage was 0.06.
GGCAGAGCUCAACACAGCGUGGCAAAGUGGCUGUGGCUUGACGGCC [A39U U43G] showed a self-cleavage of 0.02.
Work on GGCAGAGCUCAACACAGCGUGGCAAAGUGGCUGUGGCUACACUACC [G40C G44A] yielded a self-cleavage of 0.12.
With GGCAGAGCUCAACACAGCGUGGCAAAGUGGCUGUGGCUACACUUCC [G40C G44U] the self-cleavage was 0.07.
Work on GGCAGAGCUCAACACAGCGUGGCAAAGUGGCUGUGGCUACACUCCC [G40C G44C] yielded a self-cleavage of 0.06.
GGCAGAGCUCAACACAGCGUGGCAAAGUGGCUGUGGCUCGACUGCC [A39C] showed a self-cleavage of 0.26.
Variant GGCAGAGCUCAACACAGCGUGGCAAAGUGGCUGUGGCUGGACUGCC [A39G] has a self-cleavage of 0.1.
Work on GGCAGAGCUCAACACAGCGUGGCAAAGUGGCUGUGGCUUGACUGCC [A39U] yielded a self-cleavage of 0.8.
In the case of GGCAGAGCUCAACACAGCGUGGCAAAGUGGCUGUGGCUAAACUGCC [G40A], the self-cleavage is reported as 0.14.
In the case of GGCAGAGCUCAACACAGCGUGGCAAAGUGGCUGUGGCUAUACUGCC [G40U], the self-cleavage is reported as 0.15.
Variant GGCAGAGCUCAACACAGCGUGGCAAAGUGGCUGUGGCUACACUGCC [G40C] has a self-cleavage of 0.09.
GGCAGAGCUCAACACAGCGUGGCAAAGUGGCUGUGGCUUAACUGCC [A39U G40A] gave a self-cleavage of 0.17.
Work on GGCAGAGCUCAACACAGCGUGGCAAAGUGGCUGUGGCUUCACUGCC [A39U G40C] yielded a self-cleavage of 0.18.
With GGCAGAGCUCAACACAGCGUGGCAAAGUGGCUGUGGCUUUACUGCC [A39U G40U] the self-cleavage was 0.14.
In the case of GGCAGAGCUCAACACAGCGUGGCAAAGUGGCUGUGGCGAGACGGCC [U38G U43G], the self-cleavage is reported as 0.02.
For GGCAGAGCUCAACACAGCGUGGCAAAGUGGCUGUGGCUAAAUUGCC [G40A C42U], the self-cleavage was 0.09.
GGCAGAGCUCAACACAGCGUGGCAAAGUGGCUGUGGCUAAAAUGCC [G40A C42A] showed a self-cleavage of 0.1.
Variant GGCAGAGCUCAACACAGCGUGGCAAAGUGGCUGUGGCUAAAGUGCC [G40A C42G] has a self-cleavage of 0.09.
For GGCAGAGCUCAACACAGCGUGGCAAAGUGGCUGUGGCUACACUGUC [G40C C45U], the self-cleavage was 0.1.
Work on GGCAGAGCUCAACACAGCGUGGCAAAGUGGCUGUGGCUACACUGAC [G40C C45A] yielded a self-cleavage of 0.09.
Variant GGCAGAGCUCAACACAGCGUGGCAAAGUGGCUGUGGCUACACUGGC [G40C C45G] has a self-cleavage of 0.05.
Variant GGCAGAGCUCAACACAGCGUGGCAAAGUGGCUGUGGCUACCCUGCC [G40C A41C] has a self-cleavage of 0.09.
For GGCAGAGCUCAACACAGCGUGGCAAAGUGGCUGUGGCUACUCUGCC [G40C A41U], the self-cleavage was 0.14.
For GGCAGAGCUCAACACAGCGUGGCAAAGUGGCUGUGGCUACGCUGCC [G40C A41G], the self-cleavage was 0.07.
In the case of GGCAGAGCUCAACACAGCGUGGCAAAGUGGCUGUGGCUAUUCUGCC [G40U A41U], the self-cleavage is reported as 0.37.
For GGCAGAGCUCAACACAGCGUGGCAAAGUGGCUGUGGCUAUGCUGCC [G40U A41G], the self-cleavage was 0.09.
Variant GGCAGAGCUCAACACAGCGUGGCAAAGUGGCUGUGGCUAUCCUGCC [G40U A41C] has a self-cleavage of 0.2.
GGCAGAGCUCAACACAGCGUGGCAAAGUGGCUGUGGCUAUACUGAC [G40U C45A] showed a self-cleavage of 0.09.
